The series is described as follows: soluble on expression in E. coli; label from the status in PepcDB or PDB records.
Regarding “MGSDKIHHHHHHVINLKELKILHTSDWHLGVTSWTSSRPVDRREELKKALDKVVEEAEKREVDLILLTGDLLHSRNNPSVVALHDLLDYLKRMMRTAPVVVLPGNHDWKGLKLFGNFVTSISSDITFVMSFEPVDVEAKRGQKVRILPFPYPDESEALRKNEGDFRFFLESRLNKLYEEALKKEDFAIFMGHFTVEGLAGYAGIEQGREIIINRALIPSVVDYAALGHIHSFREIQKQPLTIYPGSLIRIDFGEEADEKGAVFVELKRGEPPRYERIDASPLPLKTLYYKKIDTSALKSIRDFCRNFPGYVRVVYEEDSGILPDLMGEIDNLVKIE”, the “soluble on expression in E. coli” value was “soluble”. Regarding “MGSDKIHHHHHHVKLAAVDIGSNAIRFQVSKILEYNGMIMFKKMEYVRFPLRLGEDVFRLGMISAEKEMKFIKLIQTFKNLFELYEVDDYMISATSAMRESKNGRDIVLKVKGLVGVDIDIIDGDKEAELINTVLHNELDDNSYIHIDVGGGSTELNLFVNRKKIAARSFKIGSVRRLQGLDAPEEWESMKQWVKDNIDKLPKPVTAIGTGGNIGKIFELGTTEKSKKDKRMISLKKIEEVQHNISQYSYEDRINVLMLNSDRADVIIPASEIYTSVMEFAKAKNMLVPEVGLKDGLMLMLYERNKHLHITDLDSIRNVNKYQK”, the “soluble on expression in E. coli” value is given as “not soluble”.

For the sequence “MGSDKIHHHHHHVLLEEFENTSAVIEPTDMAIRGGGEVCETMIFSFNGEIVDRVRQLPESREGGYLESINGRHPWYILERDGVRVAVMLAVIGAPMAVGHLEELKACGFENFIVLGSCGVLDKSLVADKIILPSSALRDEGTSYHYAPASDEISYDPALLLTMEKALDQAGIEHVRAKTWTTDAFYRETSAKVKRRLAAGAMVVDMEASAIMAWANFRQAKVYQFFYTADYVDYHKNEWDARREERTADSMTFFEVAMAIARKLESTSC”, the “soluble on expression in E. coli” value was “not soluble”. Next, “MGSDKIHHHHHHVMTKAADGMSDWDNMAIICDVLGRAPDVEMGSIGEGWSLCRWRQFVGAYTLPALPQPIFTVHIAGKPQVKTWDKGGWTETSSIPGCATIVPAGMPTGWLVDGELDVVTLSMASDVLAGQPHADQFNRMRFAFSDPLGVALTRQILSEIYAPQAEERTAYVSAMVGALKAHILSGPPAHGNPVDIPVSDFSAYRLHKIMNAILADPAAEHSLEAMAAVAGVTPSHFCRLFKKAIGITPHQYVMKARLDRAQQMLVQTEMSLAALSEAAGFASQSHFSRAFRSWFGMAPSDFRQQERRRTD”: “not soluble”; “MGSDKIHHHHHHVPGLLPDVDREGLLEYSVVYTDRSLNHMSQLFQGVMRDISNSLKKVYNAKSAVVVPGSGTFGMEAVARQFATNRKCLVIRNGWFSYRWTQIFDMGGIPSESIVLKARPVEEGRQAAYAPPPIEEVVAAIRENKPDLVFAPHVETASGIMLPDAYLRAVADAVHAVDGMFVLDCIASGTVWVDMKASGVDVLISAPQKGWSASPCCGLVMLGELARERIEGTTSTSFACDLRKWLQIMEAYENGGFAYHATMPTDGLATLRDVMKETEAYGFDKVRAEQVELGRRVRSVLADRGFRSVAAEGFEAPGVVVSYTDDDGIRSGKKFADAGLQIAAGVPLQCDEPQDFKTFRIGLFGLDKLHDVEGAVGRFVKGLGSIL”: “not soluble”. Next, “MGSDKIHHHHHHVPVRDGLQPLFVAAPLHAGGRPAAFGLKDRVMADNTTSTALLDLRGVRKTFLTPDRRERTVLEGVDFKLEEGEIVALLGKSGSGKSTLLRIMAGLIKANGGEVKYRGHLMTGPAKGISMVFQSFALFPWLTVEENVELGLEAAGIPKAEREDRANEAIDLIGLGGYESAYPKELSGGMRQRVGFARALVMRPDVLLLDEPFSALDVLTSETLREDLLELWDERKIPTKGILLVSHNIEEAVSMADRVLVFSSDPGRVRAEIRVNLPRPRDTESAAFRQIVDEVYTLMTANVRGGGVGATEQLTLGYRLPDTTPGKMAGLLETVAEAPFNGRADLPQLAEETELEDDQLFHLFEGLRVLGLARIAAGDIFVTHSGQAFVEADDAHRKELFAEALVKNIPLAAHIRRVLDERKDHRAPEDRFLQELQDYLTDDEAERVLETTITWGRYAEIFDYDYNAGVLMLPEEVVEELEAGEETRDDPGARE”: “not soluble”; “MGSDKIHHHHHHVRVDLRHISDEKKLSYSDVLWQYVKQDFLWRINNAGLGNVLWLQKPYFATGEKLAFYYVYGSPGGRAEDNGTPFDVLRNIIIGNAGLNSHSDVVWTNAELSKQAAKVSANEPDASDMQPLIHTWNLSAMCDGGEVPFAVRLERLNEADAGVPMTKNIVFMNSFYGDADVCIFSPESRLGEQLFEIMDKLELVSDMKPYGDAYEILKRYSVSGRQIIDIFKVRAKNKPKTVSMHRLEQVYGYRSYAYMRRRWERYCKRLTRQQMAYANAGWEETLDLILDFLTPVWSAFCNDEIFYDDWMPELGRFLG”: “not soluble”.

For the sequence “MGSDKIHHHHHHVSLLGEERKSQIMQWLEEEGKVMTKDLIDRLDVSGETVRRYLEELERERQLKRVYGGAIYQGGKQESPISRRTDQLSRRLARYAKGWLADYSCIFLGKGEPVEHLLPYLSGSATIVTNSLSIASHLEQCRETGPFHGEIRLLGGTVDSYGQTVGVEVLQALDAYAFDASFLTFDGAEIERGFVSDDIESSLIQKAIIGRTKDVYAFLACDEFEGNRKYKVAEFRRAKIVLSPSTYPPSWEMKLFNERVNWTVVS”, the “soluble on expression in E. coli” value is on record as “not soluble”. Then “MGSDKIHHHHHHVSLSFDFSPDFNPLAARMRPASVEEYIGQSHLLGEGKPLRQALLAGKVHSMLLWGPPGTGKTTLAELVARYANAHVERISAVTSGVKEIRAAIEQAKNVAQSRGQRTLLFVDEVHRFNKSQQDAFLPFIEDGTVIFIGATTENPSFEVNNALLSRCRVYLIKRLEDDAIGQILAQANSDEARGLGKRGLLLKAELKSAIARLCDGDARKALNLLELMSDLLPDGGEYNLELLSEVAGHQAAGYDKNGDQYYDLISAVHKSIRGSAPDAALYWFCRILEGGGDPLYVARRLLAIASEDIGNADPNAMTVALNAWDCFHRVGPAEGERAIAQAVIYLASAPKSNAVYTAFKAARVLARETGNAPVPNHLRNAPTKLMSELGVGEGYRYAHDEDGAFAAGENYFPEVLQHSRIYQPTARGFEKRIRDKLAHLDALNQQSGRKRYE”, with “not soluble”.

For the sequence “MGSDKIHHHHHHVSTQFQGVIPPVITPRHADGSIDTSSLKNVTRHLIDGGVSGLFVLGSSGEVPYMTNAERELVVSTIADANASVGARAVPLIVGANEQTTNRVIEEAKKVIGLGADAIVVTSMYYAIGNAAETETHFRSIHAAVDKPIFAYDVPVRTHFKLPTDLLVRLGRDGVIAGVKDSSGDDVSFRQLLLEAKDIPDFDIFTGHEVVVDGALLGGAQGVVPGLGNVDPAGYRRLFDAAQAGDWATAAREQDRLADLFEIVYAPNGRVSGGAAGLGAFKTALQLMGVIESNTMSQPMLSLNDDEAAAIRTILERNGLV”, the “soluble on expression in E. coli” value is listed as “not soluble”.

Regarding “MGSDKIHHHHHHVSVSDAGNFDANDVAVTFGIDKVREAFEQRRSTLPPFAPYDEEPESERPKLKATPFSWRDPATIPPRKWLYGRHLIRKFLSLDIAPGGLGKSSVKIVEALAMTTGRNLLGKDCHEGPLNVWLYNLEDPAEETERRIHAAAQWFEIGPDDVGERLFVDSGREQPICIAEETDGGARIVRPVVEAVIEQLKDRRIDVLSIDPFVSSHAISENDNRAIDMVAKEWSRIADICDCAINLVHHVRKTNGAEVTAESSRGAVSLIGAARSVVVYNRMTKEEGERAGIEPRQLGFYFRTQNDKANLAPPEAADWFRMNNVDLPNGDSVGVACPWQWPDPFDGVSTWHLKEVQKRVSQGRYRADVRSAQWVGHVIANVLDIDLEKKAGRVKDILKQWLKNDMLREVEGTDEKRNVRKFVEVGTWHTD”, the “soluble on expression in E. coli” value is given as “not soluble”.

Consider “MGSDKIHHHHHHVTEAQTDPKYYDVVEATWPCLRCEKLGDITLRVGAGGGSRVSAATCDALVSDAQIAQAEAAMQDFDQPRLFMIRDGQDALDGQLERLGYAVMDPVALWTVAPSMLTDVEIPRVTTFCLWEPLAIQREIWATGGIGPERLAIMERATRPKTSILGRWDDKPAGAAFVGMHEGIAMLHALEILPHQRRKGMGVWMMRQAAYWAAEQGATELAVLCTRANAGANALYARLGMQQAGGYHYRIKR”, for which the “soluble on expression in E. coli” value is recorded as “not soluble”. Then “MGSDKIHHHHHHYGGDITYNNHNNFHVLHDRHHRSHHSRSNSRDSDEKWECRRLGVFNSPNPLTNPLLSAPKIAYFNRNGKEYAIAVCENPQIQILVGKSRGASPDFTQTRDYAVLSASSKSGLTFKCNRRHDRYEAVNLVTGSMARIEALACITVAQNDTAAVAIVNGIVGPLQAAGLHL”, with “not soluble”; and “MGSETKHSAKVKIVTRESPPSAKEHMRPTKTQILVPPTQSLPNGKKPNFGKSTKQRREPRERTSKTGHEDDKATMVTVNIDAFLHDKAPKKKSCKYKKKKTRQYQDRAAASIDSKPHVAGHTAFAGASFTTDIPHEAALPKPSFV”, with “soluble”.

Take “MGSGKPPLILASGSPRRKALLEALGYPIRVAVPGVEEEGLPLPPKALAQALARRKGEAVQGEWVLAADTVVDLDGEVLGKPKDPEENRLFLRRLSGRLHLVHTAFYLRTPKEVVEEVHTARVFFRPLSEEEIAWYVGSGEGLDKAGGYGAQGLGMALLERVEGDFYTVVGLPVSRVFALLWARGFRP”: the “soluble on expression in E. coli” value was “soluble”.

Consider “MGSKGVYQYHWQSHNVKHSGVDDMVLLSKITENSIVENLKKRYMDDYIFTYIGSVLISVNPFKQMPYFGEKEIEMYQGAAQYENPPHIYALADNMYRNMIIDRENQCVIISGESGAGKTVAAKYIMSYISRVSGGGTKVQHVKDIILQSNPLLEAFGNAKTVRNNNSSRFGKYFEIQFSPGGEPDGGKISNFLLEKSRVVMRNPGERSFHIFYQLIEGASAEQKHSLGITSMDYYYYLSLSGSYKVDDIDDRREFQETLHAMNVIGIFAEEQTLVLQIVAGILHLGNISFKEVGNYAAVESEEFLAFPAYLLGINQDRLKEKLTSRQMDSKWGGKSESIHVTLNVEQACYTRDALAKALHARVFDFLVDSINKAMEKDHEEYNIGVLDIYGFEIFQKNGFEQFCINFVNEKLQQIFIELTLKAEQEEYVQEGIRWTPIEYFNNKIVCDLIENKVNPPGIMSILDDVCATMHAVGEGADQTLLQKLQMQIGSHEHFNSWNQGFIIHHYAGKVSYDMDGFCERNRDVLFMDLIELMQSSELPFIKSLFPENLQADKKGRPTTAGSKIKKQANDLVSTLMKCTPHYIRCIKPNETKKPRDWEESRVKHQVEYLGLKENIRVRRAGYAYRRIFQKFLQRYAILTKATWPSWQGEEKQGVLHLLQSVNMDSDQFQLGRSKVFIKAPESLFLLEEMRERKYDGYARVIQKSWRKFVARKKYVQMREEASDLLLNKKERRRNSINRNFIGDYIGMEEHPELQQFVGKREKIDFADTVTKYDRRFKGVKRDLLLTPKCLYLIGREKVKQGPDKGLVKEVLKRKIEIERILSVSLSTMQDDIFILHEQEYDSLLESVFKTEFLSLLAKRYEEKTQKQLPLKFSNTLELKLKKENWGPWSAGGSRQVQFHQGFGDLAVLKPSNKVLQVSIGPGLPKNSRPTRRNTTQNTGYSSGTQNANYPVRAAPPPPGYHQNGVIRNQYVPYPHAPGSQRSNQKSLYTSMARPPLPRQQSTSSDRVSQTPESLDFLKVPDQGAAGVRRQTTSRPPPAGGRPKPQPKPKPQVPQCKALYAYDAQDTDELSFNANDIIDIIKEDPSGWWTGRLRGKQGLFPNNYVTKI”, for which the “soluble on expression in E. coli” value is on record as “soluble”. Next, “MGSKRVCPDANNSVKSKKAKTLDFLAHPRRKIAIQFFYLGWEHDGLVQQPHTQNTVENHIMQALIKTHLIEDWTKCDFSRCGRTDKGVSAFKQTAAMVVRSLCPGDSGVFWSDSTQEHQKVDYKASGEELPYVKMLNGVLPKTIRVFAWAPVAQTFNARFDCNRRTYKYSFAKADLNLEKMRQGAELLVGEHDFSNFCQIDMNEKRLLQSYVRKVYEVKVEQVSTHPENDMYSMVELTVSGSGFLWHMIRYIVTILQEIGRENEQPSLISQLLDLKKYPSRPQYTLASDTPLCLFDCGYKSEDVEWKVHDYTLKSTVTGLQKTWATYQARSRMMENMLGELTGMAEFSSGDANKGLHEFVQDRPIPSNYIRFENRKMCESLESKKEKMAEKKKNGEESSDKL”: “not soluble”.

For the origin of these results see the DeepSol protein solubility set.
